Laboratory results published in article PMC3229523, “Identification of Lactoferricin B Intracellular Targets Using an Escherichia coli Proteome Chip” (PLoS ONE, 2011).
Ends that are not written are not given here. * marks the point of attachment. Biotin = O=C1N[C@H]2[C@H](CS[C@H]2CCCCC(=O)*)N1

How the values were obtained:
Assay in all cases: peptide or protein array; E. coli proteome chip: purified His-tagged proteins printed in duplicate on Fullmoon slides, blocked with 1% BSA; 10 nM N-terminal biotinylated LfcinB with 1% BSA, room temperature, 1 h; detected with DyLight 649-labeled streptavidin, ratio to DyLight 549-labeled anti-His antibody; ProCAT normalisation, local cut-off; triplicate chips
Conditions in all cases: both partners purified
[1] = target: T1, YjeS (E. coli K-12, UniProt P39288 1-379)
T1 construct: YjeS, E. coli K-12
T1 sequence (looked up): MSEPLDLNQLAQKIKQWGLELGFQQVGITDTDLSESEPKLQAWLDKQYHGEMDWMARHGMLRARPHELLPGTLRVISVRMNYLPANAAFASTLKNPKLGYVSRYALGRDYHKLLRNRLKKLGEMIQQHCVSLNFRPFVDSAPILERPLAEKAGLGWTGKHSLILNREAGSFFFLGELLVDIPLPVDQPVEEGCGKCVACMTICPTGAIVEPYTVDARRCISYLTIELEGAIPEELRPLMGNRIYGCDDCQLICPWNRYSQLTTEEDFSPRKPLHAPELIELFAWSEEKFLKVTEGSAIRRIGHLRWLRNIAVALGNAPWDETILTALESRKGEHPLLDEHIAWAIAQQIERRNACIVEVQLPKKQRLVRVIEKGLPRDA

[2] = target: T2, NrdD (E. coli K-12, UniProt P28903 1-712)
T2 construct: NrdD, ribonucleotide reductase family, E. coli K-12
T2 sequence (looked up): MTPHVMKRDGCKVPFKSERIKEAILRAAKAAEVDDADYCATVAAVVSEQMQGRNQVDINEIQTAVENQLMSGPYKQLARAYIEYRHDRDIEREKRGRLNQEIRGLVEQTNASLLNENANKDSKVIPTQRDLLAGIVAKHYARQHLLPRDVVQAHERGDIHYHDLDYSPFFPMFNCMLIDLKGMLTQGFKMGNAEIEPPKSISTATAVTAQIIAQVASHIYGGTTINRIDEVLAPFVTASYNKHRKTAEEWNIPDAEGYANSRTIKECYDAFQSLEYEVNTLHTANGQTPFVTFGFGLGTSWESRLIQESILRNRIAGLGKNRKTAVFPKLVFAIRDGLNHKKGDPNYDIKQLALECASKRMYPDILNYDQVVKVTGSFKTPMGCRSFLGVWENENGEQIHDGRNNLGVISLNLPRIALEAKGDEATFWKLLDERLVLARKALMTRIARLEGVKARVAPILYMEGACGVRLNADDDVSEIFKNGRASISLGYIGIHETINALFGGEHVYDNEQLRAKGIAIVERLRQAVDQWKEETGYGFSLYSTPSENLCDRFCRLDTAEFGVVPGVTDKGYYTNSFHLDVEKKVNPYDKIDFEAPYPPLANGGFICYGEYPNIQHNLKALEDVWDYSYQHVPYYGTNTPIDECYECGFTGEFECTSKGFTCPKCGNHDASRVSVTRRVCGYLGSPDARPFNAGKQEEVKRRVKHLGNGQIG

[3] = target: T3, YdhS (E. coli K-12, UniProt P77148 1-534)
T3 construct: YdhS, E. coli K-12
T3 sequence (looked up): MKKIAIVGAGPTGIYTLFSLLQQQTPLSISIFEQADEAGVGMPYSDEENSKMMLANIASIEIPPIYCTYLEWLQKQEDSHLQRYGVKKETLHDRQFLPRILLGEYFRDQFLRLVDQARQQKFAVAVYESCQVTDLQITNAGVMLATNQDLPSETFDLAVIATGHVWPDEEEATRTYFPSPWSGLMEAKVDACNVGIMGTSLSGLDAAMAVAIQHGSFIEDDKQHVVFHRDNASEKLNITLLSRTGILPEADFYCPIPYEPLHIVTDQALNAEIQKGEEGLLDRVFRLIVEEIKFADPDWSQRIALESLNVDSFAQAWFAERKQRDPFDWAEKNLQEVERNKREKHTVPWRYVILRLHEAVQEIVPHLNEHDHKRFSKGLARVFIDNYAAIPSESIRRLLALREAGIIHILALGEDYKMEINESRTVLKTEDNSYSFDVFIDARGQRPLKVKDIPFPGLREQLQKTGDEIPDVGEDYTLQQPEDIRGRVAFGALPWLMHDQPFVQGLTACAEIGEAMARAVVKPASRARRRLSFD

[4] = target: T4, YfbO (E. coli K-12, UniProt P76485 1-140)
T4 construct: YfbO, E. coli K-12
T4 sequence (looked up): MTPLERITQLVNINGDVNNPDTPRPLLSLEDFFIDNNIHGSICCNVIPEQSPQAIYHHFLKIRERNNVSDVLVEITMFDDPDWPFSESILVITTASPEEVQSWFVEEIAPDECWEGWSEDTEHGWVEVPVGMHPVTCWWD

[5] = target: T5, YrfI (E. coli K-12, UniProt P0A6Y5 1-292)
T5 construct: YrfI, E. coli K-12
T5 sequence (looked up): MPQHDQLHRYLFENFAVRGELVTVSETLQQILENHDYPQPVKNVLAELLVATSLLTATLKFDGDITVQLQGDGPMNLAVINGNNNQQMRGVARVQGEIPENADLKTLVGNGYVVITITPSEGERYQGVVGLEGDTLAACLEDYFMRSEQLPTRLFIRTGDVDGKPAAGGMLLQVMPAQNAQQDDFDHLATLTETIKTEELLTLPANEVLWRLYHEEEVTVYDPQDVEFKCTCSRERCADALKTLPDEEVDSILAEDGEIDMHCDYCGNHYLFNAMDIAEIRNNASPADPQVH

Measured: binding result

B1: N-terminal biotinylated Lactoferricin B (peptide, UniProt P24627 36-60, looked up)
peptide: Biotin-FKCRRWQWRMKKLGAPSITCVRRAF
modifications: ends and bridges not checked
notes: lactoferricin B (LfcinB), cationic antimicrobial peptide of 25 amino acids; also called biotinylated LfcinB; biotin-labeled LfcinB; source: bought: Kelowna Inc
binds: all assays above
